The target of this assay is full-length hAPE1 (human apurinic/apyrimidinic endonuclease 1), recombinant, as immobilised for SPR (human, UniProt P27695 1-318). The assay is described as follows: SPR.

One may read the Kd as the equilibrium constant for the complex coming apart.

Chain of full-length hAPE1 (human apurinic/apyrimidinic endonuclease 1), recombinant, as immobilised for SPR (P27695 whole entry): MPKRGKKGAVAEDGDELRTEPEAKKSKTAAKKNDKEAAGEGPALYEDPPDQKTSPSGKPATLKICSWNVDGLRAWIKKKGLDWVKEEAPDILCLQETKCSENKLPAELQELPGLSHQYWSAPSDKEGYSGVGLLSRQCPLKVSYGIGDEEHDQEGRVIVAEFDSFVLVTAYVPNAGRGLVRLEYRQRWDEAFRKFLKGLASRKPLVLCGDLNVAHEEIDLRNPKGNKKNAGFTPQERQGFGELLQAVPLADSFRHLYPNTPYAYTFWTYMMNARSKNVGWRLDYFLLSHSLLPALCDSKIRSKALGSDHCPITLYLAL

B1: N-terminal domain of NPM1 (residues 1-117) (domain or fragment, UniProt P06748 1-117, looked up)
chain: MEDSMDMDMSPLRPQNYLFGCELKADKDYHFKVDNDENEHQLSLRTVSLGAGAKDELHIVEAEAMNYEGSPIKVTLATLKMSVQPTVSLGGFEITPPVVLRLKCGSGPVHISGQHLV
In the case of B1, the Kd came to 668 ± 5 nM.

These data come from article PMC3001066 (Nucleic Acids Research, 2010).
